Assay results from article PMC10716780, “The multistep oxidation of cholesterol to pregnenolone by human cytochrome P450 11A1 is highly processive” (The Journal of Biological Chemistry, 2023).
One block for each molecule: values may come before it.

How the values were obtained:
human P450 11A1 [1] = biological target: T1, human P450 11A1 (Homo sapiens, UniProt P05108); assay: Steady-state kinetic assay with [1,2-3H]-cholesterol (radio-HPLC); format: biochemical; set-up: M A S T R S P R P F N E I P S P G D N; Met-Ala (N-terminal start residues in place of the transit peptide and Ile40) (N); made in house; host or cells: E. coli (P450 11A1 in C41(DE3); Adx and AdR in E. coli); settings: ^3H-cholesterol substrate, triplicate
T1 sequence (P05108 41-521 limits assumed): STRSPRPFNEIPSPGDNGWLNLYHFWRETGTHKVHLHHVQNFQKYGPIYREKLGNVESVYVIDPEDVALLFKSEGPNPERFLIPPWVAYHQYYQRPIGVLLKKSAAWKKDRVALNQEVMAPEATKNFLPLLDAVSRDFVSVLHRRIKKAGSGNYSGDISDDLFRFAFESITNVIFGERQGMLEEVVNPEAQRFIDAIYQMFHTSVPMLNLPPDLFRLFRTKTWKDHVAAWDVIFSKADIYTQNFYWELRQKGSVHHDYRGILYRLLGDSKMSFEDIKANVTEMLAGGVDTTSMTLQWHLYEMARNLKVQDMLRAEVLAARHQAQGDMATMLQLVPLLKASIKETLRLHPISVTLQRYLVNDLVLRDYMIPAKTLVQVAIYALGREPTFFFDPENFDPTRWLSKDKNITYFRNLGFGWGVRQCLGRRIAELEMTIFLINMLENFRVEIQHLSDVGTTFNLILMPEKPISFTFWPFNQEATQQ
T1 sequence (P00257 59-186 partner): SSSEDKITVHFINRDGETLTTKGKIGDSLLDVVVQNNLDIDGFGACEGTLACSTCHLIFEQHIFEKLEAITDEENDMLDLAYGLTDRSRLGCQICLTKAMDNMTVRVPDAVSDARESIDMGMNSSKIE
Procedure: Samples (held at 4 °C) were injected (50 μl) using a Agilent 1100 Series HPLC system on a NovaPak (Waters) octadecylsilane (C18) 3.9 mm × 100 mm (4 μm) column (held at 25 °C) with a flow rate of 1.0 ml min^−1 using a gradient mobile phase of (A) H2O and (B) CH3CN as follows (all in % B, v/v): 0 min, 70%; 10 min, 100%; 35.5 min, 100%; 37 min, 30%; and 40 min, 70%). The flow rate was increased to 1.5 ml min^−1 (from the 10 min to 10.5 min interval) to decrease the retention of cholesterol and was later returned to 1.0 ml min^−1 (from the 35 min to 35.5 min interval) to prepare for the next injection. The column eluate was mixed (1:2, v/v) with FlowLogic U scintillation cocktail (LabLogic) and radioactivity (^3H) was detected using a β-RAM Model 5 radioflow detector (IN/US, LabLogic). Analytes were quantitated on the basis of their ^3H peak areas relative to the summed radioactivity of the four compounds of interest.
Figure S13. Steady-state kinetic assay of P450 11A1 with [1,2-^3H]-cholesterol. The enzyme reaction was performed in triplicate as described for the steady-state LC-MS assays, but with the use of ^3H-cholesterol (2 mCi mmol^-1) as the substrate. Product (^3H-pregnenolone) was detected by radio-HPLC as described (Experimental Methods). The highest rate measured was 6.7 ± 0.4 nmol product min^-1 (nmol P450)^-1.

[2] = biological target: T2, human cytochrome P450 11A1 (human, UniProt P05108 40-521); assay: other fluorescence titration; P450 11A1 (0-0.4 uM) titrated into Alexa 488-Adx (50 nM) in 100 mM potassium phosphate pH 7.4; quenching of fluorescence (excitation 493 nm, emission 500-600 nm); quadratic fit; without cholesterol; settings: both partners purified
T2 construct: cytochrome P450 11A1, human, recombinant, codon-optimized insert in pET23C(+); In one titration it was added as a preformed 1:1 complex with cholesterol; also called CYP11A1; P450scc; source: E. coli C41(DE3) with GroES/GroEL, purified (CHAPS solubilisation, Ni-NTA, dialysis)
T2 sequence (looked up): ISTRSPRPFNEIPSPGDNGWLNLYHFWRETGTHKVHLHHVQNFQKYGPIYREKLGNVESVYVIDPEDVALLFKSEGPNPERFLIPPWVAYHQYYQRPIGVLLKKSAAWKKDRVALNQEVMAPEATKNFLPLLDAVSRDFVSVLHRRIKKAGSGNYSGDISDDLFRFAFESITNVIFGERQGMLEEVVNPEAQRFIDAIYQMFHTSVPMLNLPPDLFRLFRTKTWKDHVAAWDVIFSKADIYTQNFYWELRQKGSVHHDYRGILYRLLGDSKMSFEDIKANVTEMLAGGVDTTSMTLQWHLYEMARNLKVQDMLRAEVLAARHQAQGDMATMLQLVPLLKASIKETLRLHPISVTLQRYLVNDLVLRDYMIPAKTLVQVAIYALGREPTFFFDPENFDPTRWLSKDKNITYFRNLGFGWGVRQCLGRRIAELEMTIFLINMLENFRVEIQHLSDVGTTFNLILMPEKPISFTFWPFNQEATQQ

[3] = biological target: T2, human cytochrome P450 11A1; assay: other fluorescence titration; preformed 1:1 complex of P450 11A1 and cholesterol titrated into Alexa 488-Adx (50 nM) in 100 mM potassium phosphate pH 7.4; quenching of fluorescence (excitation 493 nm, emission 500-600 nm); quadratic fit; with cholesterol (equimolar to P450); settings: both partners purified
bovine P450 11A1 = tested on: bovine P450 11A1; set-up: method as in PMID 15181009; settings: surface plasmon resonance, bovine ref 47; read-out: Kd of P450 11A1-Adx complex, without sterol; cited from earlier work
human P450 11A1 [4] = tested on: human P450 11A1; set-up: method as in PMID 33271253; settings: surface plasmon resonance, human ref 46; read-out: Kd of P450 11A1-Adx complex, without sterol; cited from earlier work

Molecule: [3H]C1C([3H])[C@@]2(C)C(=CC[C@H]3[C@@H]4CC[C@H]([C@H](C)CCCC(C)C)[C@@]4(C)CC[C@@H]32)C[C@H]1O (some centres unmarked) [[1,2-^3H]-cholesterol, [1,2-^3H]-Cholesterol]
highest rate measured (human P450 11A1 [1]): 6.7 ± 0.4 nmol product min^-1 (nmol P450)^-1

Kd [2]: 38 nM
Kd [3]: 8.2 nM
B1: Alexa Fluor 488-labeled adrenodoxin (natural protein, bovine, UniProt P00257 59-186, looked up)
chain: SSSEDKITVHFINRDGETLTTKGKIGDSLLDVVVQNNLDIDGFGACEGTLACSTCHLIFEQHIFEKLEAITDEENDMLDLAYGLTDRSRLGCQICLTKAMDNMTVRVPDAVSDARESIDMGMNSSKIE
modifications: Alexa Fluor 488 label (site not stated)
notes: also called Alexa 488-Adx; Adx

B2: Adx: adrenodoxin, soluble iron-sulfur electron donor protein (recombinant bovine); used fluorescently labeled as Alexa 488-Adx (protein)
chain: SSSEDKITVHFINRDGETLTTKGKIGDSLLDVVVQNNLDIDGFGACEGTLACSTCHLIFEQHIFEKLEAITDEENDMLDLAYGLTDRSRLGCQICLTKAMDNMTVRVPDAVSDARESIDMGMNSSKIE
modifications: Alexa Fluor 488 label (site not stated)
notes: adrenodoxin, soluble iron-sulfur electron donor protein (recombinant bovine); used fluorescently labeled as Alexa 488-Adx
Kd (bovine P450 11A1): 13.4 nM
Kd (human P450 11A1 [4]): 24 nM
